Blank lines part the entries; values can stand above or below the molecule they belong to.
Legend:
CXCR4 homodimer = target: T1, CXCR4 homodimer (Homo sapiens, UniProt P61073); assay: BRET on HEK293 cells expressing CXCR4/Rluc+CXCR4/YFP; format: cell-based
T1 construct: expressed in transfected cells; host or cells: HEK293, transient transfection
Source text: This functional assay allows to evaluate the conformational changes induced upon SDF-1 and/or 515H7 Mab binding to CXCR4 receptor at the level of CXCR4 homodimer.
(§1) Expression vectors for the investigated interaction partners were constructed as fusion proteins with the corresponding dye (Renilla reniformis luciferase, Rluc and Yellow fluorescent protein, YFP) by applying conventional molecular biology techniques. Two days prior performing BRET experiments, HEK293 cells were transiently transfected with expression vectors coding for the corresponding BRET partners: [CXCR4/Rluc+CXCR4/YFP] to study CXCR4 homodimerization. The day after, cells were distributed in poly-lysine pre-coated white 96 MW plates in complete culture medium [DMEM supplemented with 10% FBS]. Cells were first cultivated at 37° C. with CO2 5% in order to allow cell attachment to the plate. Cells were then starved with 200 μl DMEM/well overnight Immediately prior to the BRET experiment, DMEM was removed and cells were quickly washed with PBS. Cells were then incubated in PBS in the presence or absence of antibody, 10 min at 37° C. prior to the addition of coelenterazine H 5 μM with or without SDF-1 300 nM in a final volume of 50 μl. After incubation for further 10 minutes at 37° C., light-emission acquisition at 485 nm and 530 nm was initiated using the Mithras LB940 multilabel reader (Berthold) (1 s/wavelength/well repeated 15 times at room temperature).
(§2) Calculation of BRET ratio was performed as previously described (Angers et al., 2000): [(emission530 nm)−(emission485 nm)×Cf]/(emission485 nm), where Cf=(emission530 nm)/(emission485 nm) for cells expressing the Rluc fusion protein alone under the same experimental conditions. […] For sake of readability, results are expressed in mi11iBRET units (mBU); mBU corresponds to the BRET ratio multiplied by 1000.
This functional assay allows to evaluate the conformational changes induced upon SDF-1 and/or c515H7 Mab binding to CXCR4 receptor at the level of CXCR4 homodimer.
as §1, with “Cells were then incubated in PBS in the presence or absence of antibody, 10 min at 37° C. prior to the addition of coelenterazine H 5 μM with or without SDF-1 300 nM in a final volume of 50 μl.” left out
as §2, with “milliBRET” for “mi11iBRET”, “1000. […]” for “1000.”

human CXCR4 [1] = target: T2, human CXCR4 (Homo sapiens, UniProt P61073); assay: SDF-1-induced calcium release in CHO-CXCR4 cells; format: cell-based; set-up: expressed in transfected cells; settings: SDF-1 100 nM, recombinant CHO/CXCR4, at about 40 sec.
Source text: This functional assay was designed to monitor CXCR4 receptor signaling via stimulation of the phospholipase C pathway, inducing calcium liberation from intracellular stores from the endoplasmic reticulum.
CHO-K1 cells, stably and constitutively expressing human CXCR4 receptor were obtained upon transfection of naïve CHO-K1 cells (ATCC CCL-61) with a mammalian expression vector carrying the whole coding sequence of human CXCR4 receptor (RefSeq NM_003467). Cells were propagated in complete culture medium [DMEM-Ham's F12 supplemented with 5% fetal calf serum (FCS) and 500 μg/ml of geneticin]. Cells were plated in black 96MW plates at a density of 100,000 cells/well in appropriate culture medium. Cells were starved overnight before conducting the experiments. Cells are loaded with the fluorescent calcium dye (Fluo-4 No Wash, Invitrogen US) in loading buffer [HBSS 1×, HEPES 20 mM, Probenicid acid 25 mM] for 30 min. at 37° C. followed by 30 min. at 25° C. Stimulation by SDF-1 was performed by direct injection into each well. For antagonism experiments, 10 μl of Mab solution are added directly into the loading buffer at least 10 min. before SDF-1. Kinetic fluorescence measurements are performed on a multi-mode fluorescence microplate reader Mithras LB940 (Berthold) using the following settings: excitation at 485 nm, emission at 535 nm, excitation energy at 10000 arbitrary units. Fluorescence in each well is recorded during 0.1 second every second and for a time period of 20 sec. prior SDF-1 injection (basal signal). Then 20 μl of SDF-1 are injected and data recording follows for a time period of 2 min. Each experimental condition is performed in duplicate. Values for each well are first corrected by subtracting the basal fluorescence and the fluorescence emitted by a control well without cells. Relative data are expressed as a percentage of the maximal stimulation obtained by SDF-1 (100 nM).

[2] = tested on: HIV-1 primary isolate 89.6 (dual X4/R5 virus); assay: Neutralization assay, multiple rounds of replication on primary PBMC, isolate 89.6; format: cell-based; settings: single agent; 90% decrease of viral titer, multiple rounds, day 7 p24 ELISA
Protocol: This assay that combines serial dilutions of c515H7 Mab or Maraviroc or combination of both with serial dilutions of virus, analyzes multiple rounds of infection on PBMC (peripheral blood mononuclear cells). Briefly, quadruplicate 25-μl aliquots of serial dilutions (twofold) of c515H7 Mabs or Maraviroc or combination of both were each incubated with 25 μl of serial dilutions of virus in prehydrated 96-well filter plates (1.25-μm pore size, Durapor Dv; Millipore, Molsheim, France). A control titration of the virus (25 μl of RPMI replacing the diluted c515H7 Mabs or Maraviroc) was performed on the same plate as the titrations in the presence of dilutions of the c515H7 Mabs or Maraviroc or combination of both. After 1 h at 37° C., 25 μl of PHA-stimulated PBMC at a concentration of 4×10^6 cells/ml (pool of PHA activated PBMC from five healthy donors) was added to achieve a 75-μl final culture volume of RPMI, 10% fetal calf serum (FCS), and 20 IU of interleukin-2 (IL-2) per ml (R&D System). After 24 h at 37° C., 100 μl of the same culture medium was added. Two washings (200 μl of RPMI each) were performed by filtration on day 4 to remove the c515H7 Mabs and Maraviroc, and 200 μl of fresh culture medium was added. On day 7, the presence of p24 in the culture supernatants was measured by ELISA and compared to that of the negative controls (cultures infected with dilutions of virus and maintained in the presence of 10^−6 M zidovudine [AZT]) to determine positive wells. […]
This assay that combines serial dilutions of hz515H7 Mab or Maraviroc or combination of both with serial dilutions of virus, analyzes multiple rounds of infection on PBMC (peripheral blood mononuclear cells). […] On day 7, the presence of p24 in the culture supernatants was measured by ELISA and compared to that of the negative controls (cultures infected with dilutions of virus and maintained in the presence of 10^−6 M zidovudine [AZT]) to determine positive wells. […]

human CXCR4 [3] = target: T2, human CXCR4; assay: Cross blocking of biotinylated murine 515H7 on CXCR4 transfected NIH3T3 cells, flow cytometry; format: binding; set-up: expressed in transfected cells; host or cells: NIH3T3 (mouse fibroblasts)
Protocol: FIG. 19: Cross blocking of the biotinylated murine antibody 515H7 by the chimeric 515H7 and different variants of the humanized 515H7. The activity of the humanized variants of 515H7 (hz515H7) to cross block the parental murine antibody 515H7 was evaluated by flow cytometry using CXCR4 transfected NIH3T3 cells. The activity of the humanized variants was compared to the chimeric 515H7.
Binding of humanized variants of 515H7 was determined on a NIH3T3 cell line stably transfected with human CXCR4. The binding activity was evaluated by a competition assay with the biotinylated mouse antibody. In a second attempt, humanized antibodies were evaluated for their ability to inhibit binding of biotinylated SDF-1 to RAMOS cells. RAMOS cells were chosen because of their high expression of CXCR4 and low expression of CXCR7 and SDF-1.
In a first series of experiments, the anti-CXCR4 binding activities of the three first humanized variants were analysed. The VH variant 1 (VH1) was combined with the murine VL and these constructs were evaluated in their capacity to inhibit the binding of a biotinylated murine 515H7 parental antibody. The amino acid sequence of the variable domain of VH1 comprises the SEQ ID No. 90 whereas the nucleotide sequence comprises the SEQ ID No. 91. […]

T2 sequence (P61073 whole entry): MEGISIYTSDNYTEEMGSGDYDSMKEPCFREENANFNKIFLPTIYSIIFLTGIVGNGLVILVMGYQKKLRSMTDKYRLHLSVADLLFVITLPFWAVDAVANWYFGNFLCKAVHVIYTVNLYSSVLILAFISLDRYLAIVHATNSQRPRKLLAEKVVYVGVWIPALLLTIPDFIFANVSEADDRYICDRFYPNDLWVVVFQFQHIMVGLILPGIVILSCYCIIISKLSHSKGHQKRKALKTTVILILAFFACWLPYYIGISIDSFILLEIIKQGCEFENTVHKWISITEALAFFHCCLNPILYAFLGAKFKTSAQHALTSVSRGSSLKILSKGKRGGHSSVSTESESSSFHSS
T1 sequence (P61073 whole entry): as above
T1 sequence (P61073 whole entry): as above

Molecule: SDF-1: Stromal-cell-Derived Factor-1, the natural ligand of CXCR4 [reference compound]
increase of BRET signal (CXCR4 homodimer; SDF-1 300 nM): about 20% | maximal intensity of calcium signal (human CXCR4 [1]): > 140 % over basal fluorescence

Molecule: Maraviroc [reference compound]
IC90 [2]: > 50 µg/mL

Now from value to molecule:

cross blocking of biotinylated murine 515H7, compared to chimeric 515H7 (human CXCR4 [3]): No reduction in the activity
B1: hz515H7 VH1 VL2: humanized VH variant 1 (no back mutations) combined with variant 2 of VL (antibody, V domains shown)
VH: EVQLVESGGGLVQPGRSLRLSCTASGFTFTDNYMSWVRQAPGKGLEWVGFIRNKANGYTTEYAASVKGRFTISRDDSKSIAYLQMNSLKTEDTAVYYCARDVGSNYFDYWGQGTLVTVSS
VL: DIVMTQSPSSLAVSLGERATMSCKSSQSLFNSRTRKNYLAWYQQKPGQSPKLLIYWASARDSGVPARFTGSGSETYFTLTISRVQAEDLAVYYCMQSFNLRTFGQGTKVEIK

inhibition of SDF-1-induced BRET increase (CXCR4 homodimer; SDF-1 100 nM): about 88%
B2: hz515H7 VH1 D76N VL2: humanized 515H7 Mab; variable domains VH1 D76N (SEQ ID No. 64) and VL2 (SEQ ID No. 65) (antibody, listed as Mus musculus, V domains shown)
VH: EVQLVESGGGLVQPGRSLRLSCTASGFTFTDNYMSWVRQAPGKGLEWVGFIRNKANGYTTEYAASVKGRFTISRDNSKSIAYLQMNSLKTEDTAVYYCARDVGSNYFDYWGQGTLVTVSS
VL: DIVMTQSPSSLAVSLGERATMSCKSSQSLFNSRTRKNYLAWYQQKPGQSPKLLIYWASARDSGVPARFTGSGSETYFTLTISRVQAEDLAVYYCMQSFNLRTFGQGTKVEIK

Reference: US9090686B2, “Antibodies for the treatment of HIV” (Pierre Fabre Medicament, priority 2009, dated 2015)
